From PMC9117480

Legend:
[1] = target: GST mutant encoding FPheK at position-52 (Schistosoma japonicum (printed only as SjGST)); experiment: cross-linking
[2] = target: GST mutant encoding FSY at position-52 (Schistosoma japonicum (printed only as SjGST)); experiment: cross-linking

Substance | stoichiometry N [1] | stoichiometry N [2]
GST mutant encoding FPheK at position-52 (enzyme) | 2 | –
GST mutant encoding FSY at position-52 (enzyme) | – | 2
